Experiments:
Format in all cases: cell-based
P. aeruginosa BI80 = assay: agar disc-diffusion assay; details: strain BI80; 0.3, 3 and 30 μg of protein spotted on discs on CAA agar lawn, overnight
Experimental: (§1) Overnight P. aeruginosa cultures grown in CAA medium were equalized till OD595=1.0 in CAA and diluted 100×. Sterile cotton swab was briefly submerged in diluted microbial suspension, removing the excess of liquid by pressing it against the container wall. The swab was used for evenly streaking bacteria on plates containing growth medium with CAA solid agar (1.5%). 6 mm diameter sterile Whatman discs were placed on soft-agar and 0.3-30 μg of chimeric pyocins were spotted to paper disks. The plates were incubated overnight at 37° C. and bacteriocin inhibition zones were observed.
(§2) Next, all 25 P. aeruginosa strains were subjected to agar disc-diffusion assay by spotting different amounts of purified pyocin S5 (0.3 μg, 3 μg and 30 μg) on bacteria lawns. Six P. aeruginosa strains were resistant to pyocin S5. Four of these six strains were pyocin S5 and immunity protein-encoding strains—PA14, PAO1, […] and NCTC 13921. Two cystic fibrosis isolates, 12-35708 and 12-29165 were also completely resistant to pyocin S5, despite the absence of S5, or S5 immunity protein coding genes. […] Turbid inhibition zones were detected when 3 μg and 30 μg of S5 were spotted on the lawn of these strains (Table 1, FIG. 3).

P. aeruginosa HP7 = assay: agar disc-diffusion assay; details: strain HP7; 0.3, 3 and 30 μg of protein spotted on discs on CAA agar lawn, overnight
Experimental: as §1, §2

P. aeruginosa Bu002 = assay: agar disc-diffusion assay; details: strain Bu002; 0.3, 3 and 30 μg of protein spotted on discs on CAA agar lawn, overnight
Experimental: as §1, §2

P. aeruginosa HP6 = assay: agar disc-diffusion assay; details: strain HP6; 0.3, 3 and 30 μg of protein spotted on discs on CAA agar lawn, overnight
Experimental: as §1, §2

P. aeruginosa A19 = assay: agar disc-diffusion assay; details: strain A19; 0.3, 3 and 30 μg of protein spotted on discs on CAA agar lawn, overnight
Experimental: as §1, §2

P. aeruginosa HP40 = assay: agar disc-diffusion assay; details: strain HP40; 0.3, 3 and 30 μg of protein spotted on discs on CAA agar lawn, overnight
Experimental: as §1, §2

P. aeruginosa PAO1 = assay: agar disc-diffusion assay; details: strain PAO1; 0.3, 3 and 30 μg of protein spotted on discs on CAA agar lawn, overnight
Experimental: as §1, §2

P. aeruginosa ATCC 29260 = assay: agar disc-diffusion assay; details: strain ATCC 29260; 0.3, 3 and 30 μg of protein spotted on discs on CAA agar lawn, overnight
Experimental: as §1, §2

P. aeruginosa NCTC 13921 = assay: agar disc-diffusion assay; details: strain NCTC 13921; 0.3, 3 and 30 μg of protein spotted on discs on CAA agar lawn, overnight
Experimental: as §1, §2

P. aeruginosa UR78 = assay: agar disc-diffusion assay; details: strain UR78; 0.3, 3 and 30 μg of protein spotted on discs on CAA agar lawn, overnight
Experimental: as §1, §2

P. aeruginosa HP41 = assay: agar disc-diffusion assay; details: strain HP41; 0.3, 3 and 30 μg of protein spotted on discs on CAA agar lawn, overnight
Experimental: as §1, §2

P. aeruginosa BL77 = assay: agar disc-diffusion assay; details: strain BL77; 0.3, 3 and 30 μg of protein spotted on discs on CAA agar lawn, overnight
Experimental: as §1, §2

P. aeruginosa HP1 = assay: agar disc-diffusion assay; details: strain HP1; 0.3, 3 and 30 μg of protein spotted on discs on CAA agar lawn, overnight
Experimental: as §1, §2

P. aeruginosa HP52 = assay: agar disc-diffusion assay; details: strain HP52; 0.3, 3 and 30 μg of protein spotted on discs on CAA agar lawn, overnight
Experimental: as §1, §2

[1] = tested on: P. aeruginosa Boston 41501 (ATCC 27853); assay: agar disc-diffusion assay; details: strain Boston; 0.3, 3 and 30 μg of protein spotted on discs on CAA agar lawn, overnight
Experimental: as §1, §2

P. aeruginosa 13-18499 = assay: agar disc-diffusion assay; details: strain 13-18499; 0.3, 3 and 30 μg of protein spotted on discs on CAA agar lawn, overnight
Experimental: as §1, §2

P. aeruginosa Pr335 = assay: agar disc-diffusion assay; details: strain Pr335; 0.3, 3 and 30 μg of protein spotted on discs on CAA agar lawn, overnight
Experimental: as §1, §2

P. aeruginosa strains = assay: agar disc-diffusion assay, panel of 25 strains; details: panel of 25 P. aeruginosa strains, in words
Experimental: as §1, §2

B1: S5-Pflu618: chimeric bacteriocin SEQ ID NO: 21: pyocin S5 first segment fused to P. fluorescens Pflu618 killing domain (protein)
chain: MSNDNEVPGSMVIVAQGPDDQYAYEVPPIDSAAVAGNMFGDLIQREIYLQKNIYYPVRSIFEQGTKEKKEINKKVSDQVDGLLKQITQGKREATRQERVDVMSAVLHKMESDLEGYKKTFTKGPFIDYEKQSSLSIYEAWVKIWEKNSWEERKKYPFQQLVRDELERAVAYYKQDSLSEAVKVLRQELNKQKALKEKEDLSQLERDYRTRKANLEMKVQSELDQAGSALPPLVSPTPEQWLERATRLVTQAIADKKQLQTTNNTLIKNSPTPLEKQKAIYNGELLVDEIASLQARLVKLNAETTRRRTEAEAEAKRIDDYKRAVAFVADANKYILEKYGANLHQVVMDLQKDISGKKIRSYAEAMQTFEAVRTNPNARLSPQDTRAVVDALNALDKATYMDSVNKLAKGFGVTGKIVQAHSVIEKTVIGFRDGNWKPLILELESIALGAGAGAAVATLLAVFSPGFAASAIGIVAVGVAIATIASLLNADNVEKINVFISDHLETALKEQR
modifications: S5-Pflu618
Activity in agar disc-diffusion assay (P. aeruginosa BI80): * (activity detected only with 30 μg of protein)
Activity in agar disc-diffusion assay (P. aeruginosa HP7): ** (activity detected with 3 μg of protein)
Activity in agar disc-diffusion assay (P. aeruginosa Bu002): ** (activity detected with 3 μg of protein)
Activity in agar disc-diffusion assay (P. aeruginosa HP6): * (activity detected only with 30 μg of protein)
Activity in agar disc-diffusion assay (P. aeruginosa A19): *** (activity detected with 0.3 μg of protein)
Activity in agar disc-diffusion assay (P. aeruginosa HP40): ** (activity detected with 3 μg of protein)
Activity in agar disc-diffusion assay (P. aeruginosa PAO1): ** (activity detected with 3 μg of protein)
Activity in agar disc-diffusion assay (P. aeruginosa ATCC 29260): * (activity detected only with 30 μg of protein)
Activity in agar disc-diffusion assay (P. aeruginosa NCTC 13921): * (activity detected only with 30 μg of protein)
Activity in agar disc-diffusion assay (P. aeruginosa UR78): * (activity detected only with 30 μg of protein)
Activity in agar disc-diffusion assay (P. aeruginosa HP41): ** (activity detected with 3 μg of protein)
Activity in agar disc-diffusion assay (P. aeruginosa BL77): * (activity detected only with 30 μg of protein)
Activity in agar disc-diffusion assay (P. aeruginosa HP1): ** (activity detected with 3 μg of protein)
Activity in agar disc-diffusion assay (P. aeruginosa HP52): * (activity detected only with 30 μg of protein)
Activity in agar disc-diffusion assay [1]: ** (activity detected with 3 μg of protein)
Activity in agar disc-diffusion assay (P. aeruginosa 13-18499): * (activity detected only with 30 μg of protein)
Activity in agar disc-diffusion assay (P. aeruginosa Pr335): ** (activity detected with 3 μg of protein)
activity spectrum / profile in agar disc diffusion assay (P. aeruginosa strains): weaker and less broad activity in comparison to pyocin S5
